# Biological target: mixture of human tenascin and human fibronectin matrix proteins (human)
# Assay: SPR; BIAcore X, CM4 chip with an amine-coupled mixture of human tenascin and human fibronectin (4100 RU); samples injected at 1 µM in HBS (10 mM HEPES, 150 mM NaCl, 3 mM EDTA, 0.05% P20, pH 7.4), 5 µl/minute, 25°C, 1 minute, then 1 minute dissociation; reference cell subtracted
row,response (RU),Substance
1,30 RU,avidin (from UniProt P02701 25-152) (natural protein)
2,> 2000 RU,AvidinOX (from UniProt P02701 25-152)

# From article PMC3118792
